Source: patent US20050171017A1

Assays:
[1] = target: thyroid-stimulating hormone (TSH) receptor (human) (UniProt P16473); test: flow cytometry, 10 ug/ml TSH-biotin + SA-PE on human PBMC donor 1, lymphoid gate; SA-PE alone 2.50, unstained 2.13; no * (no credible shift)
[2] = target: thyroid-stimulating hormone (TSH) receptor (human) (UniProt P16473); test: flow cytometry, 10 ug/ml TSH-biotin + SA-PE on human PBMC donor 2, lymphoid gate; SA-PE alone 3.92, unstained 3.19; no * (no credible shift)
[3] = target: thyroid-stimulating hormone (TSH) receptor (human) (UniProt P16473); test: flow cytometry, 10 ug/ml TSH-biotin + SA-PE on human PBMC donor 1, myeloid gate; SA-PE alone 4.44, unstained 3.43; * = credible positive shift
[4] = target: thyroid-stimulating hormone (TSH) receptor (human) (UniProt P16473); test: flow cytometry, 10 ug/ml TSH-biotin + SA-PE on human PBMC donor 2, myeloid gate; SA-PE alone 5.92, unstained 4.33; * = credible positive shift
[5] = target: thyroid-stimulating hormone (TSH) receptor (human) (UniProt P16473); test: flow cytometry, 10 ug/ml TSH-biotin + SA-PE on U937 human monocyte line, all live cells; SA-PE alone 4.88, unstained 4.49; * = credible positive shift
[6] = target: thyroid-stimulating hormone (TSH) receptor (human) (UniProt P16473); test: cell-based or functional assay

Chain of thyroid-stimulating hormone (TSH) receptor (human) (P16473 21-764): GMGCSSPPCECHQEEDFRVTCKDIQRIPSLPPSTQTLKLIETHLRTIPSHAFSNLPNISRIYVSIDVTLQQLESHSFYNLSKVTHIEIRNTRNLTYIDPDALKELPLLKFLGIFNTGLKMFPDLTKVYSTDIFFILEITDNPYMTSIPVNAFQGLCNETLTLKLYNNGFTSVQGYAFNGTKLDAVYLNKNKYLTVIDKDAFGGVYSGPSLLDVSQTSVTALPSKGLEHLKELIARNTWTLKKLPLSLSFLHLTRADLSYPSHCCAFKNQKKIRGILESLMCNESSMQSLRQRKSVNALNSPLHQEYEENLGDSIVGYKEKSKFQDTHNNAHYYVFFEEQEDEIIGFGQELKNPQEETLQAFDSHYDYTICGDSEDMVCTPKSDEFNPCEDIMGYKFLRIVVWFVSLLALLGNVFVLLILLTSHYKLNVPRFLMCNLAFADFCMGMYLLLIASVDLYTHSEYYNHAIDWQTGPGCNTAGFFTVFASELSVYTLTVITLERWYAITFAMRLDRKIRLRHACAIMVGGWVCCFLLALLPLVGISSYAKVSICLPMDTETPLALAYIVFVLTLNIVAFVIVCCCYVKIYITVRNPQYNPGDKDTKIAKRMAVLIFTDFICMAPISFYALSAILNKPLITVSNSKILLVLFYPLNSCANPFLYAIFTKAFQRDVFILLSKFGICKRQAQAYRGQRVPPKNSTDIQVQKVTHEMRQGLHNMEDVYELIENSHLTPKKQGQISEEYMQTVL

Substance	FL-2 MFI [1]	FL-2 MFI [2]	FL-2 MFI [3]	FL-2 MFI [4]	FL-2 MFI [5]	luciferase induction (CRE-luciferase reporter, NCI-H295R human adrenal cortex cells) [6]
TSH-biotin (from UniProt P01215 25-116; P01222 21-132) (ligand)	2.63 MFI	4.23 MFI	7.78 MFI	7.26 MFI	6.34 MFI	
Thyroid stimulating hormone (TSH), purified TSH heterodimer protein (from UniProt P01215 25-116; P01222 21-132) (ligand)						15 to 25 fold
